# Laboratory results published in US20240270846A1 (published 2024).
# Biological target: T1, CD3 epsilon homodimer protein (UniProt P07766 23-126)
# T1 construct: also called CD3 (CD3 epsilon)
# Test: SPR Biacore T200, antibody over immobilised CD3e homodimer;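 further: CD3 epsilon homodimer amine-coupled on a CM4 chip, run at 25 °C in HBS-EP+, Z = bound amount of each single-residue H chain variant over that of the parent antibody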
# T1 sequence (P07766 23-126): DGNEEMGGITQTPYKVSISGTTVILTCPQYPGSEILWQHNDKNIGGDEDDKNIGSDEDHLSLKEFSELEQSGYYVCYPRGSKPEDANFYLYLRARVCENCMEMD
row,Binder,ratio of amounts bound (Z=Y/X vs CE115HA000)
1,"CE115HA000 H35S one-arm antibody (antibody, human IgG1, kappa, L234A L235A, N297A, name in Kabat numbering, one-arm antibody) heavy: QVQLVESGGGVVQPGRSLRLSCAASGFTFSNAWMSWVRQAPGKGLEWVAQIKAKSNNYATYYAESVKGRFTISRDDSKNSLYLQMNSLKTEDTAVYYCRYVHYGAYYGVDAWGQGTTVTVSSASTKGPSVFPLAPSSKSTSGGTAALGCLVKDYFPEPVTVSWNSGALTSGVHTFPAVLQSSGLYSLSSVVTVPSSSLGTQTYICNVNHKPSNTKVDKKVEPKSCDKTHTCPPCPAPEAAGGPSVFLFPPKPKDTLMISRTPEVTCVVVDVSHEDPEVKFNWYVDGVEVHNAKTKPREEQYASTYRVVSVLTVLHQDWLNGKEYKCKVSNKALPAPIEKTISKAKGQPREPQVYTLPPSRCELTKNQVSLSCAVKGFYPSDIAVEWESNGQPENNYKTTPPVLDSDGSFFLVSKLTVDKSRWQQGNVFSCSVMHEALHNHYTQKSLSLSPDYKDDDDK EPKSSDKTHTCPPCPAPELLGGPSVFLFPPKPKDTLMISRTPEVTCVVVDVSHEDPEVKFNWYVDGVEVHNAKTKPREEQYNSTYRVVSVLTVLHQDWLNGKEYKCKVSNKALPAPIEKTISKAKGQPREPQVCTLPPSRDELTKNQVSLWCLVKGFYPSDIAVEWESNGQPENNYKTTPPVLDSDGSFFLYSKLTVDKSRWQQGNVFSCSVMHEALHNRYTQKSLSLSP light: DIVMTQSPLSLPVTPGEPASISCRSSQSLVHSNRNTYLHWYQQKPGQAPRLLIYKVSNRFSGVPDRFSGSGSGTDFTLKISRVEAEDVGVYYCGQGTQVPYTFGQGTKLEIKRTVAAPSVFIFPPSDEQLKSGTASVVCLLNNFYPREAKVQWKVDNALQSGNSQESVTEQDSKDSTYSLSSTLTLSKADYEKHKVYACEVTHQGLSSPVTKSFNRGEC",0.23
2,"CE115HA000 H35W one-arm antibody (antibody, human IgG1, kappa, L234A L235A, N297A, name in Kabat numbering, one-arm antibody) heavy: QVQLVESGGGVVQPGRSLRLSCAASGFTFSNAWMWWVRQAPGKGLEWVAQIKAKSNNYATYYAESVKGRFTISRDDSKNSLYLQMNSLKTEDTAVYYCRYVHYGAYYGVDAWGQGTTVTVSSASTKGPSVFPLAPSSKSTSGGTAALGCLVKDYFPEPVTVSWNSGALTSGVHTFPAVLQSSGLYSLSSVVTVPSSSLGTQTYICNVNHKPSNTKVDKKVEPKSCDKTHTCPPCPAPEAAGGPSVFLFPPKPKDTLMISRTPEVTCVVVDVSHEDPEVKFNWYVDGVEVHNAKTKPREEQYASTYRVVSVLTVLHQDWLNGKEYKCKVSNKALPAPIEKTISKAKGQPREPQVYTLPPSRCELTKNQVSLSCAVKGFYPSDIAVEWESNGQPENNYKTTPPVLDSDGSFFLVSKLTVDKSRWQQGNVFSCSVMHEALHNHYTQKSLSLSPDYKDDDDK EPKSSDKTHTCPPCPAPELLGGPSVFLFPPKPKDTLMISRTPEVTCVVVDVSHEDPEVKFNWYVDGVEVHNAKTKPREEQYNSTYRVVSVLTVLHQDWLNGKEYKCKVSNKALPAPIEKTISKAKGQPREPQVCTLPPSRDELTKNQVSLWCLVKGFYPSDIAVEWESNGQPENNYKTTPPVLDSDGSFFLYSKLTVDKSRWQQGNVFSCSVMHEALHNRYTQKSLSLSP light: DIVMTQSPLSLPVTPGEPASISCRSSQSLVHSNRNTYLHWYQQKPGQAPRLLIYKVSNRFSGVPDRFSGSGSGTDFTLKISRVEAEDVGVYYCGQGTQVPYTFGQGTKLEIKRTVAAPSVFIFPPSDEQLKSGTASVVCLLNNFYPREAKVQWKVDNALQSGNSQESVTEQDSKDSTYSLSSTLTLSKADYEKHKVYACEVTHQGLSSPVTKSFNRGEC",0.22
3,"CE115HA000 I51D one-arm antibody (antibody, human IgG1, kappa, L234A L235A, N297A, name in Kabat numbering, one-arm antibody) heavy: QVQLVESGGGVVQPGRSLRLSCAASGFTFSNAWMHWVRQAPGKGLEWVAQDKAKSNNYATYYAESVKGRFTISRDDSKNSLYLQMNSLKTEDTAVYYCRYVHYGAYYGVDAWGQGTTVTVSSASTKGPSVFPLAPSSKSTSGGTAALGCLVKDYFPEPVTVSWNSGALTSGVHTFPAVLQSSGLYSLSSVVTVPSSSLGTQTYICNVNHKPSNTKVDKKVEPKSCDKTHTCPPCPAPEAAGGPSVFLFPPKPKDTLMISRTPEVTCVVVDVSHEDPEVKFNWYVDGVEVHNAKTKPREEQYASTYRVVSVLTVLHQDWLNGKEYKCKVSNKALPAPIEKTISKAKGQPREPQVYTLPPSRCELTKNQVSLSCAVKGFYPSDIAVEWESNGQPENNYKTTPPVLDSDGSFFLVSKLTVDKSRWQQGNVFSCSVMHEALHNHYTQKSLSLSPDYKDDDDK EPKSSDKTHTCPPCPAPELLGGPSVFLFPPKPKDTLMISRTPEVTCVVVDVSHEDPEVKFNWYVDGVEVHNAKTKPREEQYNSTYRVVSVLTVLHQDWLNGKEYKCKVSNKALPAPIEKTISKAKGQPREPQVCTLPPSRDELTKNQVSLWCLVKGFYPSDIAVEWESNGQPENNYKTTPPVLDSDGSFFLYSKLTVDKSRWQQGNVFSCSVMHEALHNRYTQKSLSLSP light: DIVMTQSPLSLPVTPGEPASISCRSSQSLVHSNRNTYLHWYQQKPGQAPRLLIYKVSNRFSGVPDRFSGSGSGTDFTLKISRVEAEDVGVYYCGQGTQVPYTFGQGTKLEIKRTVAAPSVFIFPPSDEQLKSGTASVVCLLNNFYPREAKVQWKVDNALQSGNSQESVTEQDSKDSTYSLSSTLTLSKADYEKHKVYACEVTHQGLSSPVTKSFNRGEC",0.29
4,"CE115HA000 H35T one-arm antibody (antibody, human IgG1, kappa, L234A L235A, N297A, name in Kabat numbering, one-arm antibody) heavy: QVQLVESGGGVVQPGRSLRLSCAASGFTFSNAWMTWVRQAPGKGLEWVAQIKAKSNNYATYYAESVKGRFTISRDDSKNSLYLQMNSLKTEDTAVYYCRYVHYGAYYGVDAWGQGTTVTVSSASTKGPSVFPLAPSSKSTSGGTAALGCLVKDYFPEPVTVSWNSGALTSGVHTFPAVLQSSGLYSLSSVVTVPSSSLGTQTYICNVNHKPSNTKVDKKVEPKSCDKTHTCPPCPAPEAAGGPSVFLFPPKPKDTLMISRTPEVTCVVVDVSHEDPEVKFNWYVDGVEVHNAKTKPREEQYASTYRVVSVLTVLHQDWLNGKEYKCKVSNKALPAPIEKTISKAKGQPREPQVYTLPPSRCELTKNQVSLSCAVKGFYPSDIAVEWESNGQPENNYKTTPPVLDSDGSFFLVSKLTVDKSRWQQGNVFSCSVMHEALHNHYTQKSLSLSPDYKDDDDK EPKSSDKTHTCPPCPAPELLGGPSVFLFPPKPKDTLMISRTPEVTCVVVDVSHEDPEVKFNWYVDGVEVHNAKTKPREEQYNSTYRVVSVLTVLHQDWLNGKEYKCKVSNKALPAPIEKTISKAKGQPREPQVCTLPPSRDELTKNQVSLWCLVKGFYPSDIAVEWESNGQPENNYKTTPPVLDSDGSFFLYSKLTVDKSRWQQGNVFSCSVMHEALHNRYTQKSLSLSP light: DIVMTQSPLSLPVTPGEPASISCRSSQSLVHSNRNTYLHWYQQKPGQAPRLLIYKVSNRFSGVPDRFSGSGSGTDFTLKISRVEAEDVGVYYCGQGTQVPYTFGQGTKLEIKRTVAAPSVFIFPPSDEQLKSGTASVVCLLNNFYPREAKVQWKVDNALQSGNSQESVTEQDSKDSTYSLSSTLTLSKADYEKHKVYACEVTHQGLSSPVTKSFNRGEC",0.26
5,"CE115HA000 H35Y one-arm antibody (antibody, human IgG1, kappa, L234A L235A, N297A, name in Kabat numbering, one-arm antibody) heavy: QVQLVESGGGVVQPGRSLRLSCAASGFTFSNAWMYWVRQAPGKGLEWVAQIKAKSNNYATYYAESVKGRFTISRDDSKNSLYLQMNSLKTEDTAVYYCRYVHYGAYYGVDAWGQGTTVTVSSASTKGPSVFPLAPSSKSTSGGTAALGCLVKDYFPEPVTVSWNSGALTSGVHTFPAVLQSSGLYSLSSVVTVPSSSLGTQTYICNVNHKPSNTKVDKKVEPKSCDKTHTCPPCPAPEAAGGPSVFLFPPKPKDTLMISRTPEVTCVVVDVSHEDPEVKFNWYVDGVEVHNAKTKPREEQYASTYRVVSVLTVLHQDWLNGKEYKCKVSNKALPAPIEKTISKAKGQPREPQVYTLPPSRCELTKNQVSLSCAVKGFYPSDIAVEWESNGQPENNYKTTPPVLDSDGSFFLVSKLTVDKSRWQQGNVFSCSVMHEALHNHYTQKSLSLSPDYKDDDDK EPKSSDKTHTCPPCPAPELLGGPSVFLFPPKPKDTLMISRTPEVTCVVVDVSHEDPEVKFNWYVDGVEVHNAKTKPREEQYNSTYRVVSVLTVLHQDWLNGKEYKCKVSNKALPAPIEKTISKAKGQPREPQVCTLPPSRDELTKNQVSLWCLVKGFYPSDIAVEWESNGQPENNYKTTPPVLDSDGSFFLYSKLTVDKSRWQQGNVFSCSVMHEALHNRYTQKSLSLSP light: DIVMTQSPLSLPVTPGEPASISCRSSQSLVHSNRNTYLHWYQQKPGQAPRLLIYKVSNRFSGVPDRFSGSGSGTDFTLKISRVEAEDVGVYYCGQGTQVPYTFGQGTKLEIKRTVAAPSVFIFPPSDEQLKSGTASVVCLLNNFYPREAKVQWKVDNALQSGNSQESVTEQDSKDSTYSLSSTLTLSKADYEKHKVYACEVTHQGLSSPVTKSFNRGEC",0.16
6,"CE115HA000 H35V one-arm antibody (antibody, human IgG1, kappa, L234A L235A, N297A, name in Kabat numbering, one-arm antibody) heavy: QVQLVESGGGVVQPGRSLRLSCAASGFTFSNAWMVWVRQAPGKGLEWVAQIKAKSNNYATYYAESVKGRFTISRDDSKNSLYLQMNSLKTEDTAVYYCRYVHYGAYYGVDAWGQGTTVTVSSASTKGPSVFPLAPSSKSTSGGTAALGCLVKDYFPEPVTVSWNSGALTSGVHTFPAVLQSSGLYSLSSVVTVPSSSLGTQTYICNVNHKPSNTKVDKKVEPKSCDKTHTCPPCPAPEAAGGPSVFLFPPKPKDTLMISRTPEVTCVVVDVSHEDPEVKFNWYVDGVEVHNAKTKPREEQYASTYRVVSVLTVLHQDWLNGKEYKCKVSNKALPAPIEKTISKAKGQPREPQVYTLPPSRCELTKNQVSLSCAVKGFYPSDIAVEWESNGQPENNYKTTPPVLDSDGSFFLVSKLTVDKSRWQQGNVFSCSVMHEALHNHYTQKSLSLSPDYKDDDDK EPKSSDKTHTCPPCPAPELLGGPSVFLFPPKPKDTLMISRTPEVTCVVVDVSHEDPEVKFNWYVDGVEVHNAKTKPREEQYNSTYRVVSVLTVLHQDWLNGKEYKCKVSNKALPAPIEKTISKAKGQPREPQVCTLPPSRDELTKNQVSLWCLVKGFYPSDIAVEWESNGQPENNYKTTPPVLDSDGSFFLYSKLTVDKSRWQQGNVFSCSVMHEALHNRYTQKSLSLSP light: DIVMTQSPLSLPVTPGEPASISCRSSQSLVHSNRNTYLHWYQQKPGQAPRLLIYKVSNRFSGVPDRFSGSGSGTDFTLKISRVEAEDVGVYYCGQGTQVPYTFGQGTKLEIKRTVAAPSVFIFPPSDEQLKSGTASVVCLLNNFYPREAKVQWKVDNALQSGNSQESVTEQDSKDSTYSLSSTLTLSKADYEKHKVYACEVTHQGLSSPVTKSFNRGEC",0.22
